Columns and labels:
Conditions in all cases: protein: recombinant; tags: N-terminal GST; blunt, G:G mismatch at position 6
[1] = target: T1, Bicoid DBD-GST (Bcd) (UniProt P09081 83-170); assay: competitive fluorescence anisotropy (HiP-FA); mean of replicates 63.883, 64.716; HiP-FA: 33 mM phosphate pH 7.0, 90 mM NaCl, 0.01% Tween 20, 0.1 mM DTT, 0.5% agarose; conventional titration and EMSA: 20 mM Tris-acetate pH 7.0, 50 nM (sic) NaCl, 0.01% Tween-20, 0.1 mM DTT
T1 sequence: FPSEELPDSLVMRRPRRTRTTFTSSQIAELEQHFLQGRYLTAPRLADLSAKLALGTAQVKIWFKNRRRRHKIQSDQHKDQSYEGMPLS

[2] = target: T1, Bicoid DBD-GST (Bcd); assay: competitive fluorescence anisotropy (HiP-FA); mean of replicates 45.665, 45.961; HiP-FA: 33 mM phosphate pH 7.0, 90 mM NaCl, 0.01% Tween 20, 0.1 mM DTT, 0.5% agarose; conventional titration and EMSA: 20 mM Tris-acetate pH 7.0, 50 nM (sic) NaCl, 0.01% Tween-20, 0.1 mM DTT
[3] = target: T1, Bicoid DBD-GST (Bcd); assay: competitive fluorescence anisotropy (HiP-FA); mean of replicates 14.726, 13.4865; HiP-FA: 33 mM phosphate pH 7.0, 90 mM NaCl, 0.01% Tween 20, 0.1 mM DTT, 0.5% agarose; conventional titration and EMSA: 20 mM Tris-acetate pH 7.0, 50 nM (sic) NaCl, 0.01% Tween-20, 0.1 mM DTT
[4] = target: T1, Bicoid DBD-GST (Bcd); assay: competitive fluorescence anisotropy (HiP-FA); mean of replicates 3.19, 4.8725; HiP-FA: 33 mM phosphate pH 7.0, 90 mM NaCl, 0.01% Tween 20, 0.1 mM DTT, 0.5% agarose; conventional titration and EMSA: 20 mM Tris-acetate pH 7.0, 50 nM (sic) NaCl, 0.01% Tween-20, 0.1 mM DTT
[5] = target: T1, Bicoid DBD-GST (Bcd); assay: competitive fluorescence anisotropy (HiP-FA); mean of replicates 143.671, 148.3805; HiP-FA: 33 mM phosphate pH 7.0, 90 mM NaCl, 0.01% Tween 20, 0.1 mM DTT, 0.5% agarose; conventional titration and EMSA: 20 mM Tris-acetate pH 7.0, 50 nM (sic) NaCl, 0.01% Tween-20, 0.1 mM DTT
[6] = target: T1, Bicoid DBD-GST (Bcd); assay: competitive fluorescence anisotropy (HiP-FA); mean of replicates 4.834, 5.5235; HiP-FA: 33 mM phosphate pH 7.0, 90 mM NaCl, 0.01% Tween 20, 0.1 mM DTT, 0.5% agarose; conventional titration and EMSA: 20 mM Tris-acetate pH 7.0, 50 nM (sic) NaCl, 0.01% Tween-20, 0.1 mM DTT
[7] = target: T1, Bicoid DBD-GST (Bcd); assay: competitive fluorescence anisotropy (HiP-FA); mean of replicates 49.501, 48.184; HiP-FA: 33 mM phosphate pH 7.0, 90 mM NaCl, 0.01% Tween 20, 0.1 mM DTT, 0.5% agarose; conventional titration and EMSA: 20 mM Tris-acetate pH 7.0, 50 nM (sic) NaCl, 0.01% Tween-20, 0.1 mM DTT
[8] = target: T1, Bicoid DBD-GST (Bcd); assay: competitive fluorescence anisotropy (HiP-FA); mean of replicates 92.598, 91.655; HiP-FA: 33 mM phosphate pH 7.0, 90 mM NaCl, 0.01% Tween 20, 0.1 mM DTT, 0.5% agarose; conventional titration and EMSA: 20 mM Tris-acetate pH 7.0, 50 nM (sic) NaCl, 0.01% Tween-20, 0.1 mM DTT
[9] = target: T1, Bicoid DBD-GST (Bcd); assay: competitive fluorescence anisotropy (HiP-FA); mean of replicates 3.661, 3.6795; HiP-FA: 33 mM phosphate pH 7.0, 90 mM NaCl, 0.01% Tween 20, 0.1 mM DTT, 0.5% agarose; conventional titration and EMSA: 20 mM Tris-acetate pH 7.0, 50 nM (sic) NaCl, 0.01% Tween-20, 0.1 mM DTT
[10] = target: T1, Bicoid DBD-GST (Bcd); assay: competitive fluorescence anisotropy (HiP-FA); mean of replicates 12.922, 12.5195; HiP-FA: 33 mM phosphate pH 7.0, 90 mM NaCl, 0.01% Tween 20, 0.1 mM DTT, 0.5% agarose; conventional titration and EMSA: 20 mM Tris-acetate pH 7.0, 50 nM (sic) NaCl, 0.01% Tween-20, 0.1 mM DTT
[11] = target: T1, Bicoid DBD-GST (Bcd); assay: competitive fluorescence anisotropy (HiP-FA); mean of replicates 28.134, 26.319; HiP-FA: 33 mM phosphate pH 7.0, 90 mM NaCl, 0.01% Tween 20, 0.1 mM DTT, 0.5% agarose; conventional titration and EMSA: 20 mM Tris-acetate pH 7.0, 50 nM (sic) NaCl, 0.01% Tween-20, 0.1 mM DTT
[12] = target: T1, Bicoid DBD-GST (Bcd); assay: competitive fluorescence anisotropy (HiP-FA); mean of replicates 29.656, 29.169; HiP-FA: 33 mM phosphate pH 7.0, 90 mM NaCl, 0.01% Tween 20, 0.1 mM DTT, 0.5% agarose; conventional titration and EMSA: 20 mM Tris-acetate pH 7.0, 50 nM (sic) NaCl, 0.01% Tween-20, 0.1 mM DTT
[13] = target: T1, Bicoid DBD-GST (Bcd); assay: competitive fluorescence anisotropy (HiP-FA); mean of replicates 8.833, 9.124; HiP-FA: 33 mM phosphate pH 7.0, 90 mM NaCl, 0.01% Tween 20, 0.1 mM DTT, 0.5% agarose; conventional titration and EMSA: 20 mM Tris-acetate pH 7.0, 50 nM (sic) NaCl, 0.01% Tween-20, 0.1 mM DTT
[14] = target: T1, Bicoid DBD-GST (Bcd); assay: competitive fluorescence anisotropy (HiP-FA); mean of replicates 94.126, 94.115; HiP-FA: 33 mM phosphate pH 7.0, 90 mM NaCl, 0.01% Tween 20, 0.1 mM DTT, 0.5% agarose; conventional titration and EMSA: 20 mM Tris-acetate pH 7.0, 50 nM (sic) NaCl, 0.01% Tween-20, 0.1 mM DTT
[15] = target: T1, Bicoid DBD-GST (Bcd); assay: competitive fluorescence anisotropy (HiP-FA); mean of replicates 8.014, 7.5595; HiP-FA: 33 mM phosphate pH 7.0, 90 mM NaCl, 0.01% Tween 20, 0.1 mM DTT, 0.5% agarose; conventional titration and EMSA: 20 mM Tris-acetate pH 7.0, 50 nM (sic) NaCl, 0.01% Tween-20, 0.1 mM DTT
[16] = target: T1, Bicoid DBD-GST (Bcd); assay: competitive fluorescence anisotropy (HiP-FA); mean of replicates 133.924, 123.07; HiP-FA: 33 mM phosphate pH 7.0, 90 mM NaCl, 0.01% Tween 20, 0.1 mM DTT, 0.5% agarose; conventional titration and EMSA: 20 mM Tris-acetate pH 7.0, 50 nM (sic) NaCl, 0.01% Tween-20, 0.1 mM DTT
[17] = target: T1, Bicoid DBD-GST (Bcd); assay: competitive fluorescence anisotropy (HiP-FA); mean of replicates 19.276, 18.3665; HiP-FA: 33 mM phosphate pH 7.0, 90 mM NaCl, 0.01% Tween 20, 0.1 mM DTT, 0.5% agarose; conventional titration and EMSA: 20 mM Tris-acetate pH 7.0, 50 nM (sic) NaCl, 0.01% Tween-20, 0.1 mM DTT
[18] = target: T1, Bicoid DBD-GST (Bcd); assay: competitive fluorescence anisotropy (HiP-FA); mean of replicates 49.725, 45.8965; HiP-FA: 33 mM phosphate pH 7.0, 90 mM NaCl, 0.01% Tween 20, 0.1 mM DTT, 0.5% agarose; conventional titration and EMSA: 20 mM Tris-acetate pH 7.0, 50 nM (sic) NaCl, 0.01% Tween-20, 0.1 mM DTT
[19] = target: T1, Bicoid DBD-GST (Bcd); assay: competitive fluorescence anisotropy (HiP-FA); mean of replicates 2.804, 2.596; HiP-FA: 33 mM phosphate pH 7.0, 90 mM NaCl, 0.01% Tween 20, 0.1 mM DTT, 0.5% agarose; conventional titration and EMSA: 20 mM Tris-acetate pH 7.0, 50 nM (sic) NaCl, 0.01% Tween-20, 0.1 mM DTT

B1: Bcd competitor 13 (A5C) (dsDNA)
DNA 1: TCGACGGTCATCCCTA
DNA 2: TAGGGATGACGGTCGA
Kd [1]: 64.3 nM

B2: Bcd competitor 17 (A6G) (dsDNA)
DNA 1: TCGACGGTAGTCCCTA
DNA 2: TAGGGACTACGGTCGA
Kd [2]: 45.8 nM

B3: Bcd competitor 25 (C9G) (dsDNA)
DNA 1: TCGACGGTAATCGCTA
DNA 2: TAGCGATTACGGTCGA
Kd [3]: 14.1 nM

B4: Bcd competitor 29 (C10T) (dsDNA)
DNA 1: TCGACGGTAATCCTTA
DNA 2: TAAGGATTACGGTCGA
Kd [4]: 4.03 nM

B5: Bcd competitor 16 (A6C) (dsDNA)
DNA 1: TCGACGGTACTCCCTA
DNA 2: TAGGGAGTACGGTCGA
Kd [5]: 146 nM

B6: Bcd competitor 30 (C10A) (dsDNA)
DNA 1: TCGACGGTAATCCATA
DNA 2: TATGGATTACGGTCGA
Kd [6]: 5.18 nM

B7: Bcd competitor 21 (T7A) (dsDNA)
DNA 1: TCGACGGTAAACCCTA
DNA 2: TAGGGTTTACGGTCGA
Kd [7]: 48.8 nM

B8: Bcd competitor 22 (C8G) (dsDNA)
DNA 1: TCGACGGTAATGCCTA
DNA 2: TAGGCATTACGGTCGA
Kd [8]: 92.1 nM

B9: Bcd competitor 28 (C10G) (dsDNA)
DNA 1: TCGACGGTAATCCGTA
DNA 2: TACGGATTACGGTCGA
Kd [9]: 3.67 nM

B10: Bcd competitor 27 (C9A) (dsDNA)
DNA 1: TCGACGGTAATCACTA
DNA 2: TAGTGATTACGGTCGA
Kd [10]: 12.7 nM

B11: Bcd competitor 23 (C8T) (dsDNA)
DNA 1: TCGACGGTAATTCCTA
DNA 2: TAGGAATTACGGTCGA
Kd [11]: 27.2 nM

B12: Bcd competitor 15 (A5T) (dsDNA)
DNA 1: TCGACGGTTATCCCTA
DNA 2: TAGGGATAACGGTCGA
Kd [12]: 29.4 nM

B13: Bcd competitor 14 (A5G) (dsDNA)
DNA 1: TCGACGGTGATCCCTA
DNA 2: TAGGGATCACGGTCGA
Kd [13]: 8.98 nM

B14: Bcd competitor 19 (T7C) (dsDNA)
DNA 1: TCGACGGTAACCCCTA
DNA 2: TAGGGGTTACGGTCGA
Kd [14]: 94.1 nM

B15: Bcd competitor 26 (C9T) (dsDNA)
DNA 1: TCGACGGTAATCTCTA
DNA 2: TAGAGATTACGGTCGA
Kd [15]: 7.79 nM

B16: Bcd competitor 18 (A6T) (dsDNA)
DNA 1: TCGACGGTATTCCCTA
DNA 2: TAGGGAATACGGTCGA
Kd [16]: 128 nM

B17: Bcd competitor 20 (T7G) (dsDNA)
DNA 1: TCGACGGTAAGCCCTA
DNA 2: TAGGGCTTACGGTCGA
Kd [17]: 18.8 nM

B18: Bcd competitor 24 (C8A) (dsDNA)
DNA 1: TCGACGGTAATACCTA
DNA 2: TAGGTATTACGGTCGA
Kd [18]: 47.8 nM

B19: Bcd competitor 1 (C1G) (dsDNA)
DNA 1: TCGAGGGTAATCCCTA
DNA 2: TAGGGATTACGCTCGA
Kd [19]: 2.7 nM

Source: paper PMC5913336, “True equilibrium measurement of transcription factor-DNA binding affinities using automated polarization microscopy”
